Measured values taken from patent publication US12661385B2, “Modulation of mTORCI activity and autophagy via CIB2-RHEB interaction” (University of Maryland, Baltimore, priority 2018, dated 2026).

Legend:
Format in all cases: binding
Raptor = Raptor (Homo sapiens, UniProt Q8N122); experiment: Co-immunoprecipitation of Raptor and CIB2; set-up: HA (N); mCherry (N); host or cells: HEK293
Description: (§1) FIG. 14. […] Arrowheads indicate filopodia tip accumulation of hCIB2-eGFP, * indicates no accumulation of indicted constructs in the red channel. c. Representative confocal images (top panel) showing CIB2 (green) interaction with Rheb (red) and Raptor (red) using NanoTRAP assay. […] Arrowheads indicate filopodia tip accumulation of indicated constructs, * indicates no accumulation of indicted construct in the red or far-red channel. Scale bar: 10 μm. d. Quantification for nanoTRAP assay for images shown above. *** p<0.001 by one-way ANOVA. e, Co-IP experiments show interaction between Raptor and CIB2.
(§2) To reveal the molecular mechanism of CIB2-mediated mTORC1 modulation, we focused on the TSC-Rheb-mTORC1 axis. We performed an interaction screen of specific proteins including TSC1, TSC2, mTORC1-specific subunit Raptor, mTOR kinase, and Rheb. We used a recently-published quantitative interaction assay known as nanoscale pulldown 2.0 (NanoSPD), in which eGFP-nanobody tag fused to the myosin-HMM domain (nanoTRAP) preferentially migrates to the filopodia (Bird et al., Molecular Biology of the Cell 28, 463-475 (2017)). CIB2-eGFP (bait) migrated efficiently to filopodia in COS-7 cells only in the presence of the nanoTRAP. […] Many downstream and upstream targets of mTORC1 regulate its activity via binding to the mTORC1-specific subunit Raptor. […]

Rheb = Rheb (Homo sapiens, UniProt Q15382); experiment: NanoSPD (nanoTRAP) interaction assay in COS-7 cells, Rheb; set-up: host or cells: COS-7; conditions: filopodia tip co-accumulation
Description: as §1, §2

GDP-bound Rheb = target: T1, GDP-bound Rheb (Homo sapiens, UniProt Q15382); experiment: Co-IP with bead-immobilized HA-GST-Rheb loaded with GDP or GTPγS; conditions: glutathione bead-immobilized HA-GST-Rheb (WT) loaded with GDP or non-cleavable GTPγS, tdTomato-CIB2 lysate added
T1 construct: host or cells: HEK293
Description: FIG. 3. […] Note the stronger interaction between CIB2 and Rheb S20N variant as compared to Q64L variant (GDP vs GTP mimetic, respectively). c, CIB2 preferentially interacts with GDP-loaded Rheb is further confirmed by co-IP experiments of HA-GST-Rheb immobilized on […] and loaded with either GDP or GTPγS, followed by incubation with tdTomato-CIB2 lysate. d, Proposed model of CIB2 function in retinal sensory cells. […] Loss of CIB2 results in reduced autophagy and exacerbated mTORC1 signaling, thus leading to RPE pathology and secondary PR dysfunction. e, f Immunoblots from RPE/choroid lysates from dry AMD or control age-matched donors indicate reduced CIB2 expression, overactive mTORC1 and reduced autophagy, quantified in panel f. Unpaired two-tailed 1 test was used to determine statistical significance. p value of <0.05 (*), <0.01 (**), and <0.001 (***). Please note that one control sample (ψ) is outliner and is highly variant from the rest, Re-quantification, omitting the highly variant control sample, is shown in FIG. 15. g.
We tested the essentiality of nucleotide binding state of Rheb using co-IP assays. […] Next, we used the Q64L and S20L Rheb variants, which mimic the GTP- and GDP-bound state, respectively.
For GTPγS of GDP loading experiments, cleared lysates of HEK293 cells over-expressing HA-GST-Rheb were prepared as described in buffer lacking MgCl2. […]

Raptor, sequence (Q8N122 whole entry): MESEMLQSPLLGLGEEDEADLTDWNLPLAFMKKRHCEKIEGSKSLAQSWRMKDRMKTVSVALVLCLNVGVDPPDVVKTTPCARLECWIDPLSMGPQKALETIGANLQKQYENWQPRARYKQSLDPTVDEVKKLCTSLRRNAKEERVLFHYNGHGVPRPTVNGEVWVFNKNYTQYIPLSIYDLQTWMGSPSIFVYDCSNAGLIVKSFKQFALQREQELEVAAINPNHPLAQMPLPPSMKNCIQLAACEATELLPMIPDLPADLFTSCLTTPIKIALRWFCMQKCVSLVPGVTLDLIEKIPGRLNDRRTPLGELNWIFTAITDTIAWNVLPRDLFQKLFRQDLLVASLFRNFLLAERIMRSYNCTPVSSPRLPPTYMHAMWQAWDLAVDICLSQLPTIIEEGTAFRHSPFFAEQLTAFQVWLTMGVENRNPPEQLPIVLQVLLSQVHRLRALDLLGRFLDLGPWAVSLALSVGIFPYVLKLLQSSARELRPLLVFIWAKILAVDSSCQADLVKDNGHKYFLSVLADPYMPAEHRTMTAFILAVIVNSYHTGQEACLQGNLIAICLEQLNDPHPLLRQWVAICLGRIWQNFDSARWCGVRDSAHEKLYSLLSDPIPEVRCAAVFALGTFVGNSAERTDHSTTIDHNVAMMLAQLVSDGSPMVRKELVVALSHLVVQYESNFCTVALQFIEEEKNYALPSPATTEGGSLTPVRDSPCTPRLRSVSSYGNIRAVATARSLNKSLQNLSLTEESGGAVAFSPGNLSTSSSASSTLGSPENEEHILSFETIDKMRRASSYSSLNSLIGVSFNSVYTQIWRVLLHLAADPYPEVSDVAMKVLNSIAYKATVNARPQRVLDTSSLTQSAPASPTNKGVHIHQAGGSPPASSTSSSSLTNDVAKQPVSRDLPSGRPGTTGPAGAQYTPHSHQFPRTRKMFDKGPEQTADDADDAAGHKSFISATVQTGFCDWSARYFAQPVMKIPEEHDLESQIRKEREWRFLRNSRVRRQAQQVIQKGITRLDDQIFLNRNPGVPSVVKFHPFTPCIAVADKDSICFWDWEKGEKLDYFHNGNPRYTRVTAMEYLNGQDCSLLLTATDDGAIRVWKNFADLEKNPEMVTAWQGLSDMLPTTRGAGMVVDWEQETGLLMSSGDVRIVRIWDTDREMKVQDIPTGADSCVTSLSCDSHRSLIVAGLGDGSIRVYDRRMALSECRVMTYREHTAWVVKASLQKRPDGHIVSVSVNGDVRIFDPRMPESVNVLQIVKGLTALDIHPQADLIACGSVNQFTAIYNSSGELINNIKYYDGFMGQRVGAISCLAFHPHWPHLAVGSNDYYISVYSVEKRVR
T1 sequence (Q15382 whole entry): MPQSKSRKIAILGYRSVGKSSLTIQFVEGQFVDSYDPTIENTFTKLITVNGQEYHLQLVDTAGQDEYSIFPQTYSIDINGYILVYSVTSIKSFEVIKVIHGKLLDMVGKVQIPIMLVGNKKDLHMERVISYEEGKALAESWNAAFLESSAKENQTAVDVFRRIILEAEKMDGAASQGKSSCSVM
Rheb, sequence (Q15382 whole entry): as above

- Interaction with Raptor (co-IP) (Raptor): confirmed the interaction
- Interaction with Rheb (NanoSPD) (Rheb): interacts with Rheb
B1: CIB2: calcium and integrin binding protein 2, over-expressed in cells from plasmid constructs; SEQ ID NO:1 (human), SEQ ID NO:2 (mouse) (protein)
chain: MGNKQTIFTEEQLDNYQDCTFFNKKDILKLHARFYELAPNLVPMDYRKSPIVHVPMSLIIQMPELRENPFKERIVEAFSEDGEGNLTFNDFVDMFSVLCESAPRELKANYAFKIYDFNTDNFICKEDLEMTLARLTKSELEEDEVVLVCDKVIEEADLDGDGKLGFADFEDMIAKAPDFLSTFHIRI
modifications: left off: large carriers
- Binding to GDP-bound vs GTP-bound Rheb (GDP-bound Rheb): binds more strongly to GDP-bound Rheb than to GTP-bound Rheb
